Measured values: article PMC4066749, “A sequence-based approach for prediction of CsrA/RsmA targets in bacteria with experimental validation in Pseudomonas aeruginosa”

B1: RsmZ-2 (RsmZ stem-loop 2) (structured_RNA)
RNA: CCCCGAAGGAUCGGGG
B2: algU RBS RNA (ssRNA)
RNA: GAAGAGGAGCUUUCAUG

Tests used:
[1] = target: T1, RsmA (UniProt O69078 1-61); test: ITC; 298 K; 1:1 single-site fit; 50 mM NaCl, 25 mM potassium phosphate pH 7.0; ITC at 298 K (125 uM RNA into 5-10 uM protein); SEC on Superdex 75 with 50 uM protein and 25 uM RNA, temperature not stated; details: protein: recombinant; tags: His tag; chain copies: 2; hairpin
[2] = target: T2, RsmA-R44A (UniProt O69078 1-61, R44A); test: analytical SEC; binding virtually eliminated; 50 uM protein, 25 uM RNA; 50 mM NaCl, 25 mM potassium phosphate pH 7.0; ITC at 298 K (125 uM RNA into 5-10 uM protein); SEC on Superdex 75 with 50 uM protein and 25 uM RNA, temperature not stated; details: protein: recombinant; chain copies: 2; hairpin
[3] = target: T1, RsmA; test: analytical SEC; 50 uM protein, 25 uM RNA; details: protein: recombinant; tags: His tag; chain copies: 2; unstructured
[4] = target: T2, RsmA-R44A; test: analytical SEC; no significant interaction, RNA largely unbound; details: protein: recombinant; chain copies: 2; unstructured

Row | Binder | Kd [1] | binding result [2] | binding result [3] | binding result [4]
1 | B1 | 276 ± 25 nM | no binding |  | 
2 | B2 |  |  | binds | no binding
